# Biological target: cav1_human CAV1 (UniProt Q03135)
# Sequence of UniProt Q03135 (Q03135 whole entry): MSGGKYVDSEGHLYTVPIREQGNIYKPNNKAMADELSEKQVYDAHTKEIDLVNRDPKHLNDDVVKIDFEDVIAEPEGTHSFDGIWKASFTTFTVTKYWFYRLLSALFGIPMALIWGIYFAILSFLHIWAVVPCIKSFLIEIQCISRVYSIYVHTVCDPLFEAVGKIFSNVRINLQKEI
substance,measurement,value
Microtubule-associated protein 1 light chain 3 beta (Homo sapiens) (from UniProt Q9GZQ8) Y113A,effect of a mutation on the interaction,disrupting interaction
